From patent US20210009714A1 (Regeneron, published 2021)
Values belong to the binder of their own block, whether it stands above or below them.

Experiments:
[1] = target: IgG1 Fc/Fc* bispecific antibody; assay: flow cytometry sandwich: antibody displayed on cells by CSCP FcγR, labeled Ab2 as detection molecule
[2] = target: IgG4 Fc/Fc monospecific antibody; assay: as above
[3] = target: IgG4 Fc*/Fc* monospecific antibody; assay: as above
[4] = target: IgG1 Fc/Fc monospecific antibody; assay: as above
[5] = target: IgG4 Fc/Fc* bispecific antibody; assay: as above
[6] = target: IgG1 Fc/Fc* bispecific antibody; assay: flow cytometry sandwich: antibody displayed on cells by CSCP FcγR, labeled Ab6 as detection molecule
[7] = target: IgG1 Fc/Fc monospecific antibody; assay: as above
[8] = target: IgG1 Fc*/Fc* monospecific antibody; assay: as above
[9] = target: IgG1 Fc/Fc* bispecific antibody; assay: flow cytometry sandwich: antibody displayed on cells by CSCP ScFv-FcγR, hFc block, FITC-labeled Ab6 as detection molecule
[10] = target: IgG4 Fc/Fc monospecific antibody; assay: as above
[11] = target: IgG1 Fc/Fc monospecific antibody; assay: as above
[12] = target: IgG4 Fc/Fc* bispecific antibody; assay: as above
human Fc* homodimer = target: T1, human Fc* homodimer (human); assay: SPR (Biacore 2000); mAb captured on anti-mouse-Fc surface, Fc dimer injected; 1:1 fit
T1 construct: also called Fc*/Fc*; human ΔAdpFc polypeptide
Experimental: Measurements to determine binding affinities and kinetic constants were made on a Biacore 2000 instrument. […] Kinetic association (kₐ) and dissociation (kd) rate constants were determined by processing and fitting the data to a 1:1 binding model using Scrubber 2.0 curve fitting software.

Tie2 = target: T2, Tie2 (UniProt Q02763 23-748, limits assumed); assay: BIAcore
T2 construct: also called Tie2 receptor
T2 sequence (Q02763 23-748 limits assumed): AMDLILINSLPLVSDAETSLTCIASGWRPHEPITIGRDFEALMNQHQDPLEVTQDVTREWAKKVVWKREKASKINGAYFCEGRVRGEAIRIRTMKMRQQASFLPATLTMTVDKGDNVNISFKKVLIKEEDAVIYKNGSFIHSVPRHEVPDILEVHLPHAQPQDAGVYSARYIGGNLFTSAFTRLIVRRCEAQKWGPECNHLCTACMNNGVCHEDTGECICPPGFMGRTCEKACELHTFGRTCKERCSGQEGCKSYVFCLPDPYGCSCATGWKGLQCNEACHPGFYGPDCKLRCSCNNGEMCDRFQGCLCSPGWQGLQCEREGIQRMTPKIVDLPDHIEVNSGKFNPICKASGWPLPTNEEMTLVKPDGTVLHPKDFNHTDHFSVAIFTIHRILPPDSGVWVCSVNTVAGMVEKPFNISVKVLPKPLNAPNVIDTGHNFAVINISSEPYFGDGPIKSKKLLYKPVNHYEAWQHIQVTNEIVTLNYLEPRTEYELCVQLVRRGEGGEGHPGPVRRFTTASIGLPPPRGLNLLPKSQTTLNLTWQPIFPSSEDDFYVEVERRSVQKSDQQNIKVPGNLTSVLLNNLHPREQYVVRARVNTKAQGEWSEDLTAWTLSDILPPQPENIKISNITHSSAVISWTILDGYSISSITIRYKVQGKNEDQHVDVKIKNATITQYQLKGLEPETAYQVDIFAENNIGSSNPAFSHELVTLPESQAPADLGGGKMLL

MFI [1]: 500
MFI [2]: 200
MFI [3]: 200
MFI [4]: 350
MFI [5]: 200
B1: Ab2 (antibody, V domains shown)
VH: QLQQSGAELAKPGASVKMSCKASGYTFTNYWIHWEKQRPEQGLEWIGYINPNTGHTEYNQKFKDKATLTADRSSSTAYMQLSSLTSEDSAVYFCARTYSGSSHFDYWGQGTTL
VL: DIVMTQTPVSLPVSLGDQASISCRSSQSLVHNNGDTFLHWYLQKPGQSPKLLIYKVSNRFSGVPDRFSGSGSGTDFTLKISRVEAEDLGVYFCSQTTLIPRTFGGGTKLEI
notes: Monoclonal from Velocimmune mice, captured on an anti-mouse-Fc surface in the SPR study; also called Fc-specific Ab2; Ab2 anti-Fc antibody

MFI [6]: 200
MFI [7]: 200
MFI [8]: 200
MFI [9]: 500
MFI [10]: 15
MFI [11]: 15
MFI [12]: 500
t1/2 (human Fc* homodimer): 19 min
B2: Ab6 (antibody, mouse IgG2a, kappa, V domains shown)
VH: EVQLVESGGAIVKPGGSHRVSCEASGFTFSNAWMSWVRQAPGRGLEWVGRILSKTDGGTTDYAAPVKDRFTISRDDSKNMLFLQMDSLKIEDTAVYFCTTADFWSAYSSDYWGQGTLVTVSS
VL: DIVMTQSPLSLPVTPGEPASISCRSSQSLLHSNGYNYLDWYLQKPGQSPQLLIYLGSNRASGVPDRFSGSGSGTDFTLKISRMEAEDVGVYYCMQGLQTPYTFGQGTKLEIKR
notes: also called Fc*-specific Ab6; Ab6 anti-Fc* antibody

Kd (Tie2): 174 nM
B3: FD1-hFc (Fc fusion, UniProt Q15389 277-498, looked up)
chain: REEEKPFRDCADVYQAGFNKSGIYTIYINNMPEPKKVFCNMDVNGGGWTVIQHREDGSLDFQRGWKEYKMGFGNPSGEYWLGNEFIFAITSQRQYMLRIELMDWEGNRAYSQYDRFHIGNEKQNYRLYLKGHTGTAGKQSSLILHGADFSTKDADNDNCMCKCALMLTGGWWFDACGPSNLNGMFYTAGQNHGKLNGIKWHYFKGPSYSLRSTTMMIRPLDF
notes: also called FD1-Fc; not shown: hFc
